Laboratory results taken from paper PMC6697735, “Generation of amine dehydrogenases with increased catalytic performance and substrate scope from ε-deaminating L-Lysine dehydrogenase” (Nature Communications, 2019).

Legend:
[1] = target: T1, LE-AmDH-v1 (ε-deaminating L-lysine dehydrogenase LysEDH F173A) (Geobacillus stearothermophilus, UniProt Q9AJC6, F173A); experiment: steady-state kinetics, Lineweaver-Burk competitive product inhibition, NADH oxidation at […] nm, […] °C; type: biochemical
T1 construct: gene lysDH

CC(=O)c1ccccc1 = experiment: purified protein; details: NADH model: phenyl ring in the new hydrophobic cavity created by F173A
O=Cc1ccccc1 = experiment: purified protein; details: NADH

Molecule | Ki [1] [mM] | Km (CC(=O)c1ccccc1) [mM] | Km (O=Cc1ccccc1) [mM]
C[C@@H](N)c1ccccc1 [(R)-8b] | 4.48 | – | –
LE-AmDH-v1 (ε-deaminating L-lysine dehydrogenase LysEDH F173A) (Geobacillus stearothermophilus; F173A) | – | 5.5 ± 0.5 | 4.9 ± 0.5
